The labels stand for the following.
B1: CPEB3 Ribozyme (parent)
chain: GGGGGCCACAGCAGAAGCGUUCACGUCGCGGCCCCUGUCAGAUUCUGGUGAAUCUGCGAAUUCUGCUGU

The variants in this series derive from B1. Description: self-cleavage, relative activity (ratio to wild type); higher = more cleavage; co-transcriptional.
Consider GGGGGCCACAGCAGAAGCGUUCACGGCCCGGCCCCUGUCAGAUUCUGGUGAAUCUGCGAAUUCUGCUGU, for which the self-cleavage was determined as 0.133.

GGGGGCCACAGCAGAAGCGUUCACGGCGCGGCCCCUGUCAGAUUCUGGUGAAUCUGGGAAUUCUGCUGU: the self-cleavage was determined as 0.172.

Take GGGGGCCACAGCAGAAGCGUUCACGGCGCGGCCCCUGUCAGAUUCUGGUGAAUCUGAGAAUUCUGCUGU: the self-cleavage was found to be 0.339.

GGGGGCCACAGCAGAAGCGUUCACGGCGCGGCCCCUGUCAGAUUCUGGUGAAUGUGCGAAUUCUGCUGU: the self-cleavage came to 0.694.

GGGGGCCACAGCAGAAGCGUUCACGGCGCGGCCCCUGUCAGAUUCUGGUGAAUAUGCGAAUUCUGCUGU: the self-cleavage amounted to 0.708.

As to GGGGGCCACAGCAGAAGCGUUCACGGCGCGGCCCCUGUCAGAUUCUGGUGAAUUUGCGAAUUCUGCUGU, the self-cleavage was found to be 0.931.

For GGGGGCCACAGCAGAAGCGUUCACGGCGCGGCCCCUGUCAGAUUCUGGUGAAUCUGCGAAUUUUGCUGU, the self-cleavage worked out at 0.893.

Regarding GGGGGCCACAGCAGAAGCGUUCACGGCGCGGCCCCUGUCAGAUUCUGGUGAAUCUGCGAAUUAUGCUGU, the self-cleavage was found to be 0.581.

As to GGGGGCCACAGCAGAAGCGUUCACGCCGCGGCCCCUGUCAGAUUCUGGUGAAUCUGCGAAUACUGCUGU, the self-cleavage worked out at 0.832.

GGGGGCCACAGCAGAAGCGUUCACGCCGCGGCCCCUGUCAGAUUCUGGUGAAUCUGCGAAUCCUGCUGU: the self-cleavage worked out at 0.732.

For the variant GGGGGCCACAGCAGAAGCGUUCACGCCGCGGCCCCUGUCAGAUUCUGGUGAAUCAGCGAAUUCUGCUGU, the self-cleavage amounted to 0.821.

In the case of GGGGGCCACAGCAGAAGCGUUCACGCCGCGGCCCCUGUCAGAUUCUGGUGAAUCCGCGAAUUCUGCUGU, the self-cleavage turned out to be 0.833.

Consider GGGGGCCACAGCAGAAGCGUUCACGGCGCGGCCCCUGUAAGAUUCUGGUGAAUCUGCGAAUUCUGCUGU, for which the self-cleavage was 0.406.

GGGGGCCACAGCAGAAGCGUUCACGGCGCGGCCCCUGUGAGAUUCUGGUGAAUCUGCGAAUUCUGCUGU: the self-cleavage came out at 0.756.

Turning to GGGGGCCACAGCAGAAGCGUUCACGGCGCGGCCCCUGUUAGAUUCUGGUGAAUCUGCGAAUUCUGCUGU, the self-cleavage worked out at 0.731.

Take GGGGGCCACAGCAGAAGCGUUCACGCCGCGGCCCCUGUCAGAUUCUGGUGAAUCUGCGAAUUCUGCCGU: the self-cleavage turned out to be 0.968.

As to GGGGGCCACAGCAGAAGCGUUCACGCCGCGGCCCCUGUCAGAUUCUGGUGAAUCUGCGAAUUCUGCGGU, the self-cleavage stood at 0.945.

Turning to GGGGGCCACAGCAGAAGCGUUCACGCCGCGGCCCCUGUCAGAUUCUGGUGAAUCUGCGAAUUCUGCAGU, the self-cleavage turned out to be 1.01.

On to GGGGGCCACAGCAGAAGCGUUCACGGCGGGGCCCCUGUCAGAUUCUGGUGAAUCUGCGAAUUCUGCUGU, for which the self-cleavage is 0.414.

As for GGGGGCCACAGCAGAAGCGUUCACGGCGUGGCCCCUGUCAGAUUCUGGUGAAUCUGCGAAUUCUGCUGU, the self-cleavage amounted to 0.318.

Turning to GGGGGCCACAGCAGAAGCGUUCACGGCGCGGCCCCUGUCAGAUUCUGGUGGAUCUGCGAAUUCUGCUGU, the self-cleavage stood at 0.787.

Consider GGGGGCCACAGCAGAAGCGUUCACGGCGCGGCCCCUGUCAGAUUCUGGUGCAUCUGCGAAUUCUGCUGU, for which the self-cleavage was found to be 0.838.

Turning to GGGGGCCACAGCAGAAGCGUUCACGGCGCGGCCCCUGUCAGAUUCUGGUGUAUCUGCGAAUUCUGCUGU, the self-cleavage was determined as 0.871.

For GGGGGCCACAGCAGAAGCGUUCACGGCGCGGCACCUGUCAGAUUCUGGUGAAUCUGCGAAUUCUGCUGU, the self-cleavage turned out to be 0.827.

In the case of GGGGGCCACAGCAGAAGCGUUCACGGCGCGGCGCCUGUCAGAUUCUGGUGAAUCUGCGAAUUCUGCUGU, the self-cleavage amounted to 0.437.

For the variant GGGGGCCACAGCAGAAGCGUUCACGGCGCGGCUCCUGUCAGAUUCUGGUGAAUCUGCGAAUUCUGCUGU, the self-cleavage was found to be 0.833.

For the variant GGGGGCCACAGCAGAAGCGUUCACGGCGCGGCCCCUGUCAGAUUCUGGUGAAUCUGCGAAUUCUGGUGU, the self-cleavage was 0.693.

For GGGGGCCACAGCAGAAGCGUUCACGGUGCGGCCCCUGUCAGAUUCUGGUGAAUCUGCGAAUUCUGCUGU, the self-cleavage came out at 0.605.

Take GGGGGCCACAGCAGAAGCGUUCACGGGGCGGCCCCUGUCAGAUUCUGGUGAAUCUGCGAAUUCUGCUGU: the self-cleavage worked out at 0.34.

For the variant GGGGGCCACAGCAGAAGCGUUCACGGCGCGGCCCCUGUCUGAUUCUGGUGAAUCUGCGAAUUCUGCUGU, the self-cleavage amounted to 0.602.

Regarding GGGGGCCACAGCAGAAGCGUUCACGGCGCGGCCCCUGUCGGAUUCUGGUGAAUCUGCGAAUUCUGCUGU, the self-cleavage was determined as 0.75.

Regarding GGGGGCCACAGCAGAAGCGUUCACGGCGCGGCCCCUGUCCGAUUCUGGUGAAUCUGCGAAUUCUGCUGU, the self-cleavage was determined as 0.395.

Turning to GGGGGCCACAGCAGAAGCGUUCACGCCGCGGCCCCUGUCAGAUUCUGGUGAAUCUGCGAACUCUGCUGU, the self-cleavage is 0.617.

As for GGGGGCCACAGCAGAAGCGUUCACGCCGCGGCCCCUGUCAGAUUCUGGUGAAUCUGCGAAGUCUGCUGU, the self-cleavage was found to be 0.693.

For the variant GGGGGCCACAGCAGAAGCGUUCACGCCGCGGCCCCUGUCAGAUUCUGGUGAAUCUGCGAAAUCUGCUGU, the self-cleavage was found to be 0.874.

As to GGGGGCCACAGCAGAAGCGUUCACGCCGCGGCCCCUGUCAGAUCCUGGUGAAUCUGCGAAUUCUGCUGU, the self-cleavage was 0.941.

GGGGGCCACAGCAGAAGCGUUCACGCCGCGGCCCCUGUCAGAUACUGGUGAAUCUGCGAAUUCUGCUGU: the self-cleavage is 0.953.

With GGGGGCCACAGCAGAAGCGUUCACGCCGCGGCCCCUGUCAGAUGCUGGUGAAUCUGCGAAUUCUGCUGU, the self-cleavage was determined as 1.02.

For GGGGGCCACAGCAGAAGCGUUCACGCCGCGGCCCCUGCCAGAUUCUGGUGAAUCUGCGAAUUCUGCUGU, the self-cleavage came to 0.925.

With GGGGGCCACAGCAGAAGCGUUCACGCCGCGGCCCCUGACAGAUUCUGGUGAAUCUGCGAAUUCUGCUGU, the self-cleavage came to 0.837.

For GGGGGCCACAGCAGAAGCGUUCACGCCGCGGCCCCUGGCAGAUUCUGGUGAAUCUGCGAAUUCUGCUGU, the self-cleavage was 0.188.

As for GGGGGCCACAGCAGAAGCGUUCACGCCGCGGCCCCUGUCAGAUUCUGGUGAAUCUGCGAAUUCUGCUGA, the self-cleavage came to 1.01.

Take GGGGGCCACAGCAGAAGCGUUCACGCCGCGGCCCCUGUCAGAUUCUGGUGAAUCUGCGAAUUCUGCUGC: the self-cleavage stood at 1.06.

GGGGGCCACAGCAGAAGCGUUCACGGCGCGGCCCCUGUCAGUUUCUGGUGAAUCUGCGAAUUCUGCUGU: the self-cleavage came out at 0.828.

With GGGGGCCACAGCAGAAGCGUUCACGGCGCGGCCCCUGUCAGCUUCUGGUGAAUCUGCGAAUUCUGCUGU, the self-cleavage worked out at 0.86.

Consider GGGGGCCACAGCAGAAGCGUUCACGGCGCGACCCCUGUCAGAUUCUGGUGAAUCUGCGAAUUCUGCUGU, for which the self-cleavage was 0.555.

GGGGGCCACAGCAGAAGCGUUCACGGCGCGGCCUCUGUCAGAUUCUGGUGAAUCUGCGAAUUCUGCUGU: the self-cleavage is 0.95.

For the variant GGGGGCCACAGCAGAAGCGUUCACGGCGCGGCCGCUGUCAGAUUCUGGUGAAUCUGCGAAUUCUGCUGU, the self-cleavage is 0.409.

Turning to GGGGGCCACAGCAGAAGCGUUCACGGCGCGGCCCCUGUCAGAUUCUGGUGACUCUGCGAAUUCUGCUGU, the self-cleavage came out at 0.912.

For GGGGGCCACAGCAGAAGCGUUCACGGCGCGGCCCCUGUCAGAUUCUGGUGAGUCUGCGAAUUCUGCUGU, the self-cleavage was found to be 0.914.

Turning to GGGGGCCACAGCAGAAGCGUUCACGGCGCGGCCCCUGUCAGAUUCUGGUGAUUCUGCGAAUUCUGCUGU, the self-cleavage worked out at 0.868.

With GGGGGCCACAGCAGAAGCGUUCACGGCGCGGCCCCUGUCAGAUUCUGGUGAAUCUGCGAUUUCUGCUGU, the self-cleavage was 0.393.

For the variant GGGGGCCACAGCAGAAGCGUUCACGCCGCGGCCCCUGUCAGAUUCUGGUGAACCUGCGAAUUCUGCUGU, the self-cleavage came to 0.882.

Turning to GGGGGCCACAGCAGAAGCGUUCACGGCGCGGCCCCUGUCAGAUUCUGGUGAAUCUGCGAAUUCUGCUGU, the self-cleavage was determined as 0.924.

Take GGGGGCCACAGCAGAAGCGUUCACGCCGCGGCCCCUGUCAGAUUCUGGCGAAUCUGCGAAUUCUGCUGU: the self-cleavage stood at 0.932.

For GGGGGCCACAGCAGAAGCGUUCACGCCGCGGCCCCUGUCAGAUUCUGGGGAAUCUGCGAAUUCUGCUGU, the self-cleavage amounted to 1.01.

On to GGGGGCCACAGCAGAAGCGUUCACGCCGCGGCCCCUGUCAGAUUCAGGUGAAUCUGCGAAUUCUGCUGU, for which the self-cleavage worked out at 1.02.

On to GGGGGCCACAGCAGAAGCGUUCACGCCGCGGCCCCUGUCAGAUUCCGGUGAAUCUGCGAAUUCUGCUGU, for which the self-cleavage amounted to 0.95.

On to GGGGGCCACAGCAGAAGCGUUCACGCCGCGGCCCCUGUCAGAUUCGGGUGAAUCUGCGAAUUCUGCUGU, for which the self-cleavage stood at 0.893.

With GGGGGCCACAGCAGAAGCGUUCACGGCGCGGCCCGUGUCAGAUUCUGGUGAAUCUGCGAAUUCUGCUGU, the self-cleavage came out at 0.241.

On to GGGGGCCACAGCAGAAGCGUUCACGGCGCGGCCCAUGUCAGAUUCUGGUGAAUCUGCGAAUUCUGCUGU, for which the self-cleavage was 0.184.

As for GGGGGCCACAGCAGAAGCGUUCACGGCGCGGCCCCUAUCAGAUUCUGGUGAAUCUGCGAAUUCUGCUGU, the self-cleavage is 0.21.

GGGGGCCACAGCAGAAGCGUUCACGGCGCGGCCCCUUUCAGAUUCUGGUGAAUCUGCGAAUUCUGCUGU: the self-cleavage worked out at 0.185.

Regarding GGGGGCCACAGCAGAAGCGUUCACGGCGCGGACCCUGUCAGAUUCUGGUGAAUCUGCGAAUUCUGCUGU, the self-cleavage worked out at 0.552.

As to GGGGGCCACAGCAGAAGCGUUCACGGCGCGGGCCCUGUCAGAUUCUGGUGAAUCUGCGAAUUCUGCUGU, the self-cleavage was 0.234.

As to GGGGGCCACAGCAGAAGCGUUCACGGCGCGGCCCCUGUCAGAUUGUGGUGAAUCUGCGAAUUCUGCUGU, the self-cleavage stood at 0.87.

As for GGGGGCCACAGCAGAAGCGUUCACGGCGCGGCCCCUGUCAGAUUAUGGUGAAUCUGCGAAUUCUGCUGU, the self-cleavage amounted to 0.951.

GGGGGCCACAGCAGAAGCGUUCACGGCGCUGCCCCUGUCAGAUUCUGGUGAAUCUGCGAAUUCUGCUGU: the self-cleavage amounted to 0.164.

As to GGGGGCCACAGCAGAAGCGUUCACGGCGCCGCCCCUGUCAGAUUCUGGUGAAUCUGCGAAUUCUGCUGU, the self-cleavage was determined as 0.284.

On to GGGGGCCACAGCAGAAGCGUUCACGGCGCGGCCCCUGUCAAAUUCUGGUGAAUCUGCGAAUUCUGCUGU, for which the self-cleavage stood at 0.539.

Take GGGGGCCACAGCAGAAGCGUUCACGGCGCGGCCCCUGUCACAUUCUGGUGAAUCUGCGAAUUCUGCUGU: the self-cleavage came to 0.561.

GGGGGCCACAGCAGAAGCGUUCACGGCGCGGCCCCUGUCAGAUUCUCGUGAAUCUGCGAAUUCUGCUGU: the self-cleavage is 0.965.

Regarding GGGGGCCACAGCAGAAGCGUUCACGCCGCGGCCCCUGUCAGAGUCUGGUGAAUCUGCGAAUUCUGCUGU, the self-cleavage is 0.735.

On to GGGGGCCACAGCAGAAGCGUUCACGGCGCGGCCCCUGUCAGAUUCUGGUGAAUCUGCGCAUUCUGCUGU, for which the self-cleavage amounted to 0.36.

GGGGGCCACAGCAGAAGCGUUCACGGCGCGGCCCCUGUCAGAUUCUGGUGAAUCUGCGGAUUCUGCUGU: the self-cleavage is 0.959.

As to GGGGGCCACAGCAGAAGCGUUCACGCCGCGGCCCCUGUCAGAUUCUGGUGAAUCUGCGAAUUCCGCUGU, the self-cleavage worked out at 0.688.

As for GGGGGCCACAGCAGAAGCGUUCACGCCGCGGCCCCUGUCAGAUUCUGGUGAAUCUGCGAAUUCAGCUGU, the self-cleavage came out at 0.768.

GGGGGCCACAGCAGAAGCGUUCACGCCGCGGCCCCUGUCAGAUUCUGGUGAAUCUGCGAAUUCGGCUGU: the self-cleavage was 0.752.

Values taken from the RNAGym collection of RNA variant scans (doi:10.7554/elife.80360).
